Key:
[1] = target: T1, MUC1 15-mer Ac-PDTRPAPGSTAPPAL-NH2; test: SPR (BIAcore 2000), 1:1 Langmuir at steady state, 50 RU peptide; 15-mer surface; Fab
T1 construct: coated on a biotin chip
T1 peptide: Ac-PDTRPAPGSTAPPAL-NH2
Method: (§1) The selected PH1-IgG1 and the Fab PH1 antibodies were evaluated for their binding characteristics by surface plasmon resonance on a BIAcore 2000 apparatus (BIAcore AB, Uppsala, Sweden). A biotin chip was coated with a MUC1 15-mer, containing the minimal PH1 epitope, PAP (Ac-PDTRPAPGSTAPPAL-NH₂ (SEQ ID NO:40) (see Example 2, above), 50 RU and 320 RU) and 60-mer (NH₂-([…])₃-COOH (SEQ ID NO:8) (von Mensdorff-Pouilly et al., Tumor Biol., 19: 186-195 (1998), 50 RU) in HBS-EP buffer (Pharmacia) a surface, blocked with biotin (15 RU), was used as a negative control. The Fab PH1 and PH1-IgG1 were injected in HBS-EP buffer. To minimize rebinding of the antigen binding molecules, a speed of 30 μl/sec was used. Affinity calculation was performed with computer programs provided by BIAcore (BIAEvaluation-version3, BIACore AB). […] The affinity for the PH1 Fab antibody was calculated according to a 1:1 Langmuir stoichiometry at steady state (Chi²: 50.6). Because of the two binding places on the PH1-IgG1, the avidity was calculated as an apparent avidity constant using 1:1 Langmuir determination with mass transfer limitation (Chi²: 42).
(§2) The affinity of the antibody was determined using BIAcore. Affinities of the Fab PH1 were calculated to be an average of 1.4 μM for binding to the 15-mer and 60-mer MUC1 peptide antigen coated surfaces.

[2] = target: T2, MUC1 60-mer peptide NH2-(…)3-COOH (biotinylated in the ELISAs and selections); test: ELISA, soluble Fab, biotinylated MUC1 60-mer; relative signal
T2 construct: also called biotinylated MUC1 60-mer
Method: (§3) Soluble Fabs were produced as described (Roovers et al., Br. J. Cancer, 78: 1407-16 (1998)). ELISAs were performed as described by Henderikx et al. (Cancer Res., 58: 4324-4332 (1998)), except the biotinylated MUC1 60-mer was used. The selected PH1 and the affinity-matured antibodies were evaluated for affinity by surface plasmon resonance (SPR) on a BIAcore 2000 apparatus (BIAcore AB, Uppsala, Sweden). Channels of a biotin chip were coated with a MUC1 15-mer, containing the minimal PH1 epitope, PAP, (Ac-PDTRPAPGSTAPPAL-NH₂, (SEQ ID NO:40) 50 RU or 320 RU) or a 60-mer (NH₂-([…])₃-COOH (i.e., containing three copies of SEQ ID NO:8 (von Mensdorff-Pouilly et al., Tumor Biol., 19: 186-195 (1998), 50 RU) in HBS-EP buffer (Pharmacia). One surface was blocked with biotin (15 RU) and used as a negative control. The antibodies were injected in HBS-EP buffer. To minimize rebinding of the antigen binding fragments, the flow speed was 30 μl/sec. Affinity calculation was performed with the BIA-evaluation software provided by the BIAcore. The affinities of the Fabs were calculated according to a 1:1 stoichiometry at steady state.

[3] = target: T1, MUC1 15-mer Ac-PDTRPAPGSTAPPAL-NH2; test: SPR (BIAcore) Kd assay on MUC1 15-mer
Method: as §3, with “The” for “Soluble Fabs were produced as described (Roovers et al., Br. J. Cancer, 78: 1407-16 (1998)). ELISAs were performed as described by Henderikx et al. (Cancer Res., 58: 4324-4332 (1998)), except the biotinylated MUC1 60-mer was used. The”
(§4) The CDR3 variants were extensively tested in BIAcore for the kinetics of the MUC1 peptide interaction. […] Using this off-rate screening with Fabs in the periplasmic extract of E. coli cultures, the clones in Table 9 as well as many more were screened for improvement in off-rate. […] To get accurate measurements, a Kd assay on the BIAcore was used with the MUC1 15-mer (there was no difference in the kinetics of interaction when the MUC1 60-mer was used, data not shown). […]

[4] = target: T1, MUC1 15-mer Ac-PDTRPAPGSTAPPAL-NH2; test: SPR (BIAcore 2000), apparent avidity constant, 1:1 Langmuir with mass transfer limitation, low density surface; 15-mer, low density surface; IgG1 avidity
Method: as §1, §2

[5] = target: T2, MUC1 60-mer peptide NH2-(…)3-COOH; test: SPR (BIAcore), MUC1 60-mer peptide antigen; the 3.5-fold end is tied to 5C8 by paragraph 206; best variant, 5C8; Fab on MUC1 peptide chip
Method: as §3, with “The” for “Soluble Fabs were produced as described (Roovers et al., Br. J. Cancer, 78: 1407-16 (1998)). ELISAs were performed as described by Henderikx et al. (Cancer Res., 58: 4324-4332 (1998)), except the biotinylated MUC1 60-mer was used. The”
as §4

T2 sequence (peptide, as listed by the source): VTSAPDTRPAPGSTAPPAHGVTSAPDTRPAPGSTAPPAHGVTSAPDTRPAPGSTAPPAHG

B1: PH1 Fab antibody (Fab, V domains shown)
VH: QVQLVQSGGGLVQPGGSLRLSCAASGFTFRSNAMGWVRQAPGKGLEWVSGISGSGGSTYYADSVKGRFTISRDNSKNTLYLQMNSLRAEDTAVYYCAKHTGGGVWDPIDYWGQGTLVTVSS
VL: EIVLTQSPLSLPVTPGEPASISCRSSQSLLHSNGYTYLDWYLQKPGQSPQLLIYSGSHRASGVPDRFSGSVSGTDFTLRISRVEAEDVGVYYCMQGLQSPFTFGPGTKVDIKR
notes: Human Fab from a naive phage library; also called Fab PH1; WT-PH1
[1]
  Kd: 1400 nM

B2: 7F9 (Fab, V domains shown)
VH: QVQLVQSGGGLVQPGGSLRLSCAASGFTFRSNAMGWVRQAPGKGLEWVSGISGSGGSTYYADSVKGRFTISRDNSKNTLYLQMNSLRAEDTAVYYCAKHTGGGVWDPIGYWGQGTLVTVSS
VL: EIVLTQSPLSLPVTPGEPASISCRSSQSLLHSNGYTYLDWYLQKPGQSPQLLIYSGSHRASGVPDRFSGSVSGTDFTLRISRVEAEDVGVYYCMQGLQSPFTFGPGTKVDIKR
notes: PH1 Fab variant; also called clone 7F9
[2]
  binding result: binds
[3]
  fold improvement of affinity over wild type PH1 Fab: < 2 fold

B3: PH1-IgG1 (antibody, V domains shown)
VH: QVQLVQSGGGLVQPGGSLRLSCAASGFTFRSNAMGWVRQAPGKGLEWVSGISGSGGSTYYADSVKGRFTISRDNSKNTLYLQMNSLRAEDTAVYYCAKHTGGGVWDPIDYWGQGTLVTVSS
VL: EIVLTQSPLSLPVTPGEPASISCRSSQSLLHSNGYTYLDWYLQKPGQSPQLLIYSGSHRASGVPDRFSGSVSGTDFTLRISRVEAEDVGVYYCMQGLQSPFTFGPGTKVDIKR
notes: Fully human gamma-1/kappa IgG1 from CHO-K1 clone 7F; FITC-labeled or biotinylated in some assays; also called recombinant human MUC1-specific IgG1; PH1-IgG1-FITC
[4]
  Kd: 8.3 nM

B4: 5C8 (Fab, V domains shown)
VH: QVQLVQSGGGLVQPGGSLRLSCAASGFTFRSNAMGWVRQAPGKGLEWVSGISGSGGSTYYADSVKGRFTISRDNSKNTLYLQMNSLRAEDTAVYYCAKHTGRGVWDPIGYWGQGTLVTVSS
VL: EIVLTQSPLSLPVTPGEPASISCRSSQSLLHSNGYTYLDWYLQKPGQSPQLLIYSGSHRASGVPDRFSGSVSGTDFTLRISRVEAEDVGVYYCMQGLQSPFTFGPGTKVDIKR
notes: PH1 Fab variant; also called clone 5C8
[3]
  fold improvement of Kd over wild type PH1 Fab: 3.5 fold
[5]
  Kd: ~400 nM

Source: patent publication US20020146750A1 (published 2002)
